Consider 24 variants from the supplement of paper PMC7125110.

The chains are these.
B1: glmS ribozyme (parent)
chain: AUAAAAGCGCCAGAACUACAGAAAUGUAGUUGACGAGGAGGAGGUUUAUCGAAUUUUCGGCGGAUGCCUCCAAA

Common to all, as to settings: with glucosamine-6-phosphate
The variants in data set [1] derive from B1. Briefly: self-cleavage kobs at 40 uM GlcN6P; higher = faster cleavage; RNA array. An outline of the steps:
(§1)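 Tiles of sequenced MiSeq chips were imaged over ~14 h at 37 °C. On them, barcoded ribozyme variants had been transcribed in situ by E. coli RNA polymerase and were tracked via a hybridised Cy3 probe while glucosamine-6-phosphate (40 μM to 10 mM) in HEPES/KCl/Mg(OAc)2 buffer flowed in. Per-tile medians, normalised to baseline and to non-cleaving reference variants, were fit to one- or two-exponential decays for kobs, and weighted Michaelis–Menten fits gave kcat and KM.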

The variants in data set [2] derive from B1. Briefly: self-cleavage kobs at 160 uM GlcN6P; higher = faster cleavage; RNA array. An outline of the steps:
as §1

Data set [3] covers variants of B1. The experiment in a line: self-cleavage kobs at 640 uM GlcN6P; higher = faster cleavage; RNA array. An outline of the steps:
as §1

Variants of B1 are the subject of data set [4]. Briefly: self-cleavage kobs at 10000 uM GlcN6P; higher = faster cleavage; RNA array. An outline of the steps:
as §1

The variants in data set [5] derive from B1. Briefly: self-cleavage kobs at 2500 uM GlcN6P; higher = faster cleavage; RNA array. An outline of the steps:
as §1

± gives the standard error. Fewer inactive variants are shown than the library holds.

Take A42U A48G: in the data set with glucosamine-6-phosphate [1], the “self-cleavage kobs at 40 uM GlcN6P” value was less than 1e-05 s⁻¹. Moreover, the “self-cleavage kobs at 160 uM GlcN6P” value with glucosamine-6-phosphate [2] is less than 1e-05 s⁻¹. The “self-cleavage kobs at 640 uM GlcN6P” value in the data set with glucosamine-6-phosphate [3] is less than 1e-05 s⁻¹.
As for C11U G29U A39U A64U, the “self-cleavage kobs at 40 uM GlcN6P” value with glucosamine-6-phosphate [1] is less than 1e-05 s⁻¹.
Turning to C11A G40A, the “self-cleavage kobs at 40 uM GlcN6P” value with glucosamine-6-phosphate [1] is less than 1e-05 s⁻¹. For the same variant, the “self-cleavage kobs at 160 uM GlcN6P” value with glucosamine-6-phosphate [2] is less than 1e-05 s⁻¹. Moreover, in the data set with glucosamine-6-phosphate [4], the “self-cleavage kobs at 10000 uM GlcN6P” value stood at 3.6e-05 ± 1.4e-05 s⁻¹.
In the case of A12C U49C U56G C58G, the “self-cleavage kobs at 40 uM GlcN6P” value in the data set with glucosamine-6-phosphate [1] was less than 1e-05 s⁻¹. In the data set with glucosamine-6-phosphate [3], the “self-cleavage kobs at 640 uM GlcN6P” value was less than 1e-05 s⁻¹. Moreover, the “self-cleavage kobs at 10000 uM GlcN6P” value in the data set with glucosamine-6-phosphate [4] is less than 1e-05 s⁻¹.
For the variant C8A G13A, the “self-cleavage kobs at 40 uM GlcN6P” value with glucosamine-6-phosphate [1] is less than 1e-05 s⁻¹. In addition, in the data set with glucosamine-6-phosphate [2], the “self-cleavage kobs at 160 uM GlcN6P” value is less than 1e-05 s⁻¹. In addition, the “self-cleavage kobs at 640 uM GlcN6P” value with glucosamine-6-phosphate [3] is less than 1e-05 s⁻¹. Besides, the “self-cleavage kobs at 2500 uM GlcN6P” value with glucosamine-6-phosphate [5] was less than 1e-05 s⁻¹. Besides, the “self-cleavage kobs at 10000 uM GlcN6P” value in the data set with glucosamine-6-phosphate [4] is less than 1e-05 s⁻¹.
Turning to C34U U55A G60U, the “self-cleavage kobs at 40 uM GlcN6P” value in the data set with glucosamine-6-phosphate [1] is less than 1e-05 s⁻¹. Further, in the data set with glucosamine-6-phosphate [3], the “self-cleavage kobs at 640 uM GlcN6P” value is less than 1e-05 s⁻¹.
Take G35A G59C: the “self-cleavage kobs at 40 uM GlcN6P” value in the data set with glucosamine-6-phosphate [1] was less than 1e-05 s⁻¹. In addition, in the data set with glucosamine-6-phosphate [2], the “self-cleavage kobs at 160 uM GlcN6P” value is less than 1e-05 s⁻¹. In addition, the “self-cleavage kobs at 640 uM GlcN6P” value in the data set with glucosamine-6-phosphate [3] was less than 1e-05 s⁻¹. For the same variant, the “self-cleavage kobs at 2500 uM GlcN6P” value with glucosamine-6-phosphate [5] was less than 1e-05 s⁻¹. In addition, the “self-cleavage kobs at 10000 uM GlcN6P” value with glucosamine-6-phosphate [4] was less than 1e-05 s⁻¹.
For the variant C10A U47G G63C C68G, the “self-cleavage kobs at 40 uM GlcN6P” value with glucosamine-6-phosphate [1] turned out to be 9.61e-05 ± 3.8e-05 s⁻¹.
For the variant A15C G29A G60A, the “self-cleavage kobs at 40 uM GlcN6P” value with glucosamine-6-phosphate [1] is less than 1e-05 s⁻¹.
As to A15G U30G A33G A48C, the “self-cleavage kobs at 40 uM GlcN6P” value in the data set with glucosamine-6-phosphate [1] is less than 1e-05 s⁻¹.
Turning to G37C G44U U46G C71G, in the data set with glucosamine-6-phosphate [1], the “self-cleavage kobs at 40 uM GlcN6P” value was less than 1e-05 s⁻¹.
With A33U G35U, in the data set with glucosamine-6-phosphate [1], the “self-cleavage kobs at 40 uM GlcN6P” value is less than 1e-05 s⁻¹. The “self-cleavage kobs at 640 uM GlcN6P” value with glucosamine-6-phosphate [3] is less than 1e-05 s⁻¹. Further, the “self-cleavage kobs at 2500 uM GlcN6P” value with glucosamine-6-phosphate [5] is less than 1e-05 s⁻¹. In addition, in the data set with glucosamine-6-phosphate [4], the “self-cleavage kobs at 10000 uM GlcN6P” value was less than 1e-05 s⁻¹.
G7A C50U: the “self-cleavage kobs at 40 uM GlcN6P” value with glucosamine-6-phosphate [1] was less than 1e-05 s⁻¹. Also, the “self-cleavage kobs at 160 uM GlcN6P” value with glucosamine-6-phosphate [2] is less than 1e-05 s⁻¹. Moreover, in the data set with glucosamine-6-phosphate [3], the “self-cleavage kobs at 640 uM GlcN6P” value was less than 1e-05 s⁻¹. In addition, in the data set with glucosamine-6-phosphate [5], the “self-cleavage kobs at 2500 uM GlcN6P” value was less than 1e-05 s⁻¹. Moreover, in the data set with glucosamine-6-phosphate [4], the “self-cleavage kobs at 10000 uM GlcN6P” value is less than 1e-05 s⁻¹.
Regarding G40A C61A, in the data set with glucosamine-6-phosphate [1], the “self-cleavage kobs at 40 uM GlcN6P” value is less than 1e-05 s⁻¹. The “self-cleavage kobs at 160 uM GlcN6P” value with glucosamine-6-phosphate [2] was less than 1e-05 s⁻¹. Moreover, the “self-cleavage kobs at 640 uM GlcN6P” value with glucosamine-6-phosphate [3] is less than 1e-05 s⁻¹.
Regarding G9C U45G, the “self-cleavage kobs at 40 uM GlcN6P” value in the data set with glucosamine-6-phosphate [1] is less than 1e-05 s⁻¹. In addition, in the data set with glucosamine-6-phosphate [2], the “self-cleavage kobs at 160 uM GlcN6P” value was less than 1e-05 s⁻¹. Also, the “self-cleavage kobs at 640 uM GlcN6P” value with glucosamine-6-phosphate [3] was less than 1e-05 s⁻¹. Besides, the “self-cleavage kobs at 2500 uM GlcN6P” value with glucosamine-6-phosphate [5] is less than 1e-05 s⁻¹.
Take A14C A53U U69C: the “self-cleavage kobs at 40 uM GlcN6P” value in the data set with glucosamine-6-phosphate [1] came out at 5.39e-05 ± 1.6e-05 s⁻¹.
On to C8A C10A G44U U46A C67A, for which the “self-cleavage kobs at 40 uM GlcN6P” value with glucosamine-6-phosphate [1] is less than 1e-05 s⁻¹. The “self-cleavage kobs at 2500 uM GlcN6P” value with glucosamine-6-phosphate [5] was less than 1e-05 s⁻¹.
Consider A12G A33G U57G, for which, in the data set with glucosamine-6-phosphate [1], the “self-cleavage kobs at 40 uM GlcN6P” value was less than 1e-05 s⁻¹.
For U46G G60U, the “self-cleavage kobs at 40 uM GlcN6P” value with glucosamine-6-phosphate [1] was less than 1e-05 s⁻¹. In addition, the “self-cleavage kobs at 160 uM GlcN6P” value in the data set with glucosamine-6-phosphate [2] was less than 1e-05 s⁻¹. The “self-cleavage kobs at 10000 uM GlcN6P” value with glucosamine-6-phosphate [4] is less than 1e-05 s⁻¹.
With G40A G60A U69A, the “self-cleavage kobs at 40 uM GlcN6P” value in the data set with glucosamine-6-phosphate [1] was less than 1e-05 s⁻¹.
Consider A12U A39U C71U, for which the “self-cleavage kobs at 40 uM GlcN6P” value with glucosamine-6-phosphate [1] was 0.000517 ± 0.00011 s⁻¹. Further, the “self-cleavage kobs at 10000 uM GlcN6P” value in the data set with glucosamine-6-phosphate [4] turned out to be 0.0493 ± 0.014 s⁻¹.
In the case of A53U U69C, the “self-cleavage kobs at 40 uM GlcN6P” value with glucosamine-6-phosphate [1] amounted to 0.000317 ± 6.8e-05 s⁻¹. Moreover, in the data set with glucosamine-6-phosphate [2], the “self-cleavage kobs at 160 uM GlcN6P” value amounted to 0.000141 ± 5.3e-05 s⁻¹. For the same variant, in the data set with glucosamine-6-phosphate [3], the “self-cleavage kobs at 640 uM GlcN6P” value is 0.00104 ± 0.0003 s⁻¹. In the data set with glucosamine-6-phosphate [4], the “self-cleavage kobs at 10000 uM GlcN6P” value came out at 0.00288 ± 0.00074 s⁻¹.
With U30G G43C, the “self-cleavage kobs at 40 uM GlcN6P” value with glucosamine-6-phosphate [1] was less than 1e-05 s⁻¹. Besides, the “self-cleavage kobs at 2500 uM GlcN6P” value in the data set with glucosamine-6-phosphate [5] was less than 1e-05 s⁻¹. Also, the “self-cleavage kobs at 10000 uM GlcN6P” value in the data set with glucosamine-6-phosphate [4] was less than 1e-05 s⁻¹.
Turning to U49C A52U, in the data set with glucosamine-6-phosphate [1], the “self-cleavage kobs at 40 uM GlcN6P” value was less than 1e-05 s⁻¹. Also, in the data set with glucosamine-6-phosphate [2], the “self-cleavage kobs at 160 uM GlcN6P” value was less than 1e-05 s⁻¹. Moreover, the “self-cleavage kobs at 640 uM GlcN6P” value with glucosamine-6-phosphate [3] was less than 1e-05 s⁻¹. Also, in the data set with glucosamine-6-phosphate [5], the “self-cleavage kobs at 2500 uM GlcN6P” value was less than 1e-05 s⁻¹. The “self-cleavage kobs at 10000 uM GlcN6P” value in the data set with glucosamine-6-phosphate [4] was less than 1e-05 s⁻¹.
